# B1: Tyrosine-protein kinase JAK2 (Mus musculus), Q62120 (parent)
# chain: MGMACLTMTEMEATSTSPVHQNGDIPGSANSVKQIEPVLQVYLYHSLGQAEGEYLKFPSGEYVAEEICVAASKACGITPVYHNMFALMSETERIWYPPNHVFHIDESTRHDILYRIRFYFPHWYCSGSSRTYRYGVSRGAEAPLLDDFVMSYLFAQWRHDFVHGWIKVPVTHETQEECLGMAVLDMMRIAKEKDQTPLAVYNSVSYKTFLPKCVRAKIQDYHILTRKRIRYRFRRFIQQFSQCKATARNLKLKYLINLETLQSAFYTEQFEVKESARGPSGEEIFATIIITGNGGIQWSRGKHKESETLTEQDVQLYCDFPDIIDVSIKQANQECSNESRIVTVHKQDGKVLEIELSSLKEALSFVSLIDGYYRLTADAHHYLCKEVAPPAVLENIHSNCHGPISMDFAISKLKKAGNQTGLYVLRCSPKDFNKYFLTFAVERENVIEYKHCLITKNENGEYNLSGTKRNFSNLKDLLNCYQMETVRSDSIIFQFTKCCPPKPKDKSNLLVFRTNGISDVQISPTLQRHNNVNQMVFHKIRNEDLIFNESLGQGTFTKIFKGVRREVGDYGQLHKTEVLLKVLDKAHRNYSESFFEAASMMSQLSHKHLVLNYGVCVCGEENILVQEFVKFGSLDTYLKKNKNSINILWKLGVAKQLAWAMHFLEEKSLIHGNVCAKNILLIREEDRRTGNPPFIKLSDPGISITVLPKDILQERIPWVPPECIENPKNLNLATDKWSFGTTLWEICSGGDKPLSALDSQRKLQFYEDKHQLPAPKWTELANLINNCMDYEPDFRPAFRAVIRDLNSLFTPDYELLTENDMLPNMRIGALGFSGAFEDRDPTQFEERHLKFLQQLGKGNFGSVEMCRYDPLQDNTGEVVAVKKLQHSTEEHLRDFEREIEILKSLQHDNIVKYKGVCYSAGRRNLRLIMEYLPYGSLRDYLQKHKERIDHKKLLQYTSQICKGMEYLGTKRYIHRDLATRNILVENENRVKIGDFGLTKVLPQDKEYYKVKEPGESPIFWYAPESLTESKFSVASDVWSFGVVLYELFTYIEKSKSPPVEFMRMIGNDKQGQMIVFHLIELLKSNGRLPRPEGCPDEIYVIMTECWNNNVSQRPSFRDLSLRVDQIRDSIAA
# partner: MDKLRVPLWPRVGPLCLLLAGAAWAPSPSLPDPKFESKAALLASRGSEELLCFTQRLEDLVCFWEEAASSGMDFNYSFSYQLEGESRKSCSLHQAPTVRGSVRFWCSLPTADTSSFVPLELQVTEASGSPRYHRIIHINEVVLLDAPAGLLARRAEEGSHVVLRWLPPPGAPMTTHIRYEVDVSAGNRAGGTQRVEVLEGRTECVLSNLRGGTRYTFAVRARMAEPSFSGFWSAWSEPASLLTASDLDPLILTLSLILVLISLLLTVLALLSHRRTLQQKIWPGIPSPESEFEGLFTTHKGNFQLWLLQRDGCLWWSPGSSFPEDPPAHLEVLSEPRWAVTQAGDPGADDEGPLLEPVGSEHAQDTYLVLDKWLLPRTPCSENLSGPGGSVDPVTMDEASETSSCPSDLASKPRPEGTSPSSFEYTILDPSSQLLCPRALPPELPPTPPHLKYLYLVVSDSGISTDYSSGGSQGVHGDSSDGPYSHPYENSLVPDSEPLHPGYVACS
# Variants of: B1
# Conditions: with epor_mouse Epor
row,Variant,effect of a mutation on the interaction
1,K539L,increasing interaction

# Variants of: B1
# Conditions: with epor_mouse Epor
# Remark: another data set of the same source
row,Variant,effect of a mutation on the interaction
1,V617F,increasing interaction

# Variants of: B1
# Conditions: with epor_mouse Epor
# Remark: another data set of the same source
row,Variant,effect of a mutation on the interaction
1,T875N,increasing interaction
